Laboratory results reported in patent US9382304B2, “Engineered polypeptides having enhanced duration of action with reduced immunogenicity” (priority 2011, dated 2016).
Where two headings read alike, the source gives them in different places.

What was measured:
[1] = tested on: IgG molecules present in normal human sera; experiment: Serum response analysis by ELISA (IgG binding to albumin binding polypeptides); conditions: 126 sera positive for one or more albumin binding polypeptides; sera diluted 50 times
Procedure: The percentage of human serum containing IgG, capable of binding to a set of albumin binding polypeptides as disclosed herein was analyzed by ELISA.
The plates were coated over night […] at 4° C. On the day of analysis, the plates were washed twice with tap water and blocked for 2 hours with 100 μl of phosphate buffered saline (PBS) containing 0.05% casein (PBSC). […] After incubation for two hours at room temperature (RT), the plates were washed in PBSC four times using an automated ELISA washer. […] 50 μl of the diluted sera was added per well according to the pre-made plate layout. Each serum sample was tested as a singlet. Positive and negative controls were included on each plate and for each albumin binding polypeptide. […] The plates were incubated for one hour at RT and subsequently washed four times in PBSC using an automated ELISA washer.

NIH/Swiss mice = experiment: OGTT DOA (oral glucose tolerance test duration of action); format: in vivo, mouse; conditions: dosed 24 hours before OGTT, even at higher doses
Source text: Water and a standard pelleted mouse chow diet were available ad libitum, except as noted. […] Significant treatment effects were identified by ANOVA (p<0.05).

[2] = human, in vivo; cited from earlier work
[3] = mouse, in vivo; cited from earlier work
[4] = rat, in vivo; cited from earlier work
[5] = rabbit, in vivo; cited from earlier work
GLP-1 receptor = target: T1, GLP-1 receptor (Rattus norvegicus, UniProt P32301); experiment: GLP-1 receptor functional assay (cAMP induction, HTRF) in rat thyroid carcinoma 6-23 (clone 6) cells; format: cell-based
T1 construct: functional activity was determined using cells that endogenously express GLP-1R; endogenous in cells; host or cells: rat thyroid carcinoma 6-23 (clone 6) cells (ATCC CRL-1607)
T1 sequence (P32301 22-463): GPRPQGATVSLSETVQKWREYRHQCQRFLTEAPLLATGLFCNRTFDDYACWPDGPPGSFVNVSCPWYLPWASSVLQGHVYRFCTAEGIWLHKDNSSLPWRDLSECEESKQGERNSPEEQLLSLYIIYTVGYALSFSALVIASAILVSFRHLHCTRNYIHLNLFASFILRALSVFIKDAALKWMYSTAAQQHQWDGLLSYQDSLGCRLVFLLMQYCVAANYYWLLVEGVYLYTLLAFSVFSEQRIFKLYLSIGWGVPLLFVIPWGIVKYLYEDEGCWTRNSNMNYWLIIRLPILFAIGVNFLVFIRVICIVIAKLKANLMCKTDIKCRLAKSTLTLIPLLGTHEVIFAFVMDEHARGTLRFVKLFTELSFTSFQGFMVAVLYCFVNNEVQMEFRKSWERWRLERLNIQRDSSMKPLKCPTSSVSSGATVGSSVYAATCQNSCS
Procedure: In another embodiment the cell-based assay is a homogeneous time-resolved fluorescence assay (HTRF®). HTRF® kits are commercially available from Cisbio International (Bedford, Mass.). […] See worldwideweb.htrf.com/products/gper/camp/, the disclosure of which is incorporated by reference herein. […] The HTRF® standards and calibrations are prepared following the instructions in the kit. Assays may be performed with or without the presence of albumin.
See for example United States Patent Application Publication US20110097751A1, incorporated by reference for the assay method. In this example, functional activity was determined using cells that endogenously express GLP-1R, and cAMP induction is detected as a measure of exendin activity.
The data above was determined in the presence of about 0.1% bovine serum albumin (BSA).

For CC[C@H](C)[C@H](NC(=O)[C@H](C)NC(=O)[C@H](CC(=O)O)NC(=O)[C@H](CCCCN)NC(=O)[C@H](CC(C)C)NC(=O)[C@H](C)NC(=O)[C@H](CCC(=O)O)NC(=O)[C@@H](NC(=O)CNC(=O)[C@H](CCC(=O)O)NC(=O)[C@@H](NC(=O)[C@@H](NC(=O)[C@H](CCCCN)NC(=O)[C@H](C)NC(=O)[C@H](CCCCN)NC(=O)[C@H](CC(=O)O)NC(=O)[C@@H](NC(=O)[C@H](CC(C)C)NC(=O)[C@H](CCCNC(=N)N)NC(=O)[C@H](CCCCN)NC(=O)[C@H](Cc1ccc(O)cc1)NC(=O)[C@H](Cc1ccccc1)NC(=O)[C@H](CC(=O)O)NC(=O)[C@H](CO)NC(=O)[C@@H](NC(=O)CNC(=O)[C@H](Cc1ccc(O)cc1)NC(=O)[C@H](CSC1CC(=O)N(CCNC(=O)CN2CCN(CC(=O)O)CCN(CC(=O)O)CCN(CC(=O)O)CC2)C1=O)NC(=O)[C@H](CC(=O)O)NC(=O)[C@H](CC(C)C)NC(=O)[C@H](CCC(=O)O)NC(=O)[C@H](C)NC(=O)[C@H](CC(N)=O)NC(=O)[C@H](C)NC(=O)[C@H](C)NC(=O)[C@H](CCC(=O)O)NC(=O)[C@H](CCCCN)NC(=O)[C@H](C)NC(=O)[C@H](CO)NC(=O)[C@H](C)NC(=O)[C@H](CC(C)C)NC(=O)CN)C(C)C)[C@@H](C)CC)[C@@H](C)O)C(C)C)C(C)C)C(=O)N[C@@H](CC(C)C)C(=O)N[C@@H](C)C(=O)N[C@@H](C)C(=O)N[C@@H](CC(C)C)C(=O)N1CCC[C@H]1C(=O)O (some centres unmarked) [PEP07968], the immunogenicity definition (CD3+ CD4+ T cells) was “non-immunogenic”, the “number of donors in which CD3+ CD4+ T cells proliferation was induced, compared to the albumin control” value (CD3+ CD4+ T cells) was 1 donors and the “IgG binding reactivity (average OD-value, percentage of serum with IgG binding)” value [1] was “least reactivity”.

With “GSLAEAKEAANAELDSYGVSDFYKRLIDKAKTVEGVEALKDAILAALP [PEP07986]” the “activity in OGTT DOA when dosed at t-24 hours” value (NIH/Swiss mice) was “inactive”.

For albumin, the half-life [2] is listed as 456 h, the half-life [3] is listed as 24 h and the half-life [4] is listed as 45.6 h. The half-life [5] was 134 h.

In the case of “rabbit serum albumin: rabbit serum albumin”, the half-life [5] is listed as “about 5 days”.

B1: HGEGTFTSDLSKQLEEEAVRLFIEWLKNTGGGGSASGSLAEAKEAANAELDSYGVSDFYKRLIDKAKTVEGVEALKDAILAALP (protein)
chain: HGEGTFTSDLSKQLEEEAVRLFIEWLKNTGGGGSASGSLAEAKEAANAELDSYGVSDFYKRLIDKAKTVEGVEALKDAILAALP
For B1, the “in vitro activity against the GLP-1 receptor” value (GLP-1 receptor) was “active in vitro” and the “activity in OGTT DOA when dosed at t-24 hours” value (NIH/Swiss mice) was “did not display 24 duration”.
